{"source": "patent US20150072922A1", "about": "“RNASE 7 ANTIMICROBIAL PEPTIDES” (THE RESEARCH INSTITUTE AT NATIONWIDE CHILDREN'S HOSPITAL, priority 2012, published 2015)", "key": {"[1]": {"system": "Staphylococcus saprophyticus (ATCC 15305)", "assay": "Antimicrobial kill (microdilution) assay, MIC/MBC by CFU count", "type": "cell-based", "settings": "for antimicrobial activity against S. saprophyticus (in words): MIC/MBC based, mostly compared to full-length RNase 7", "protocol": "(§1) The antimicrobial activity of RNase 7 and its fragments was estimated using a microdilution assay. Briefly, test bacteria (10^5) were incubated with several concentrations of RNase 7 and each fragment in 50 μl 0.1×PBS buffer for 3 hours in a 37° C. incubator. Each reaction was plated on the appropriate medium and grew overnight at 37° C. The antimicrobial activity was determined by the number of colony-forming units (CFUs) the following day. The minimum inhibition concentration (MIC) is defined as the lowest concentration that inhibits the growth of 90% of the inoculation and the minimum bactericidal concentration (MB C) is defined as the lowest concentration at which less than 99.99% of the initial inoculum is viable.\n(§2) Antimicrobial activities of the recombinant peptides were estimated with a microdilution assay. Briefly, the test bacteria (10^4 CFUs) were incubated with various concentrations of RNase 7 and each fragment in 50 ul 0.1×PBS buffer for 3 hours at 37° C. After incubation on Agar plates overnight at 37° C., the number of colony-forming units (CFUs) at each peptide concentration was determined. Using untreated bacterial aliquots as baseline, the minimum inhibition concentration (MIC) was defined as the lowest concentration that inhibits the growth of 90% of the inoculation, and the minimum bactericidal concentration (MBC) was defined as the lowest concentration at which less than 99.99% of the initial inoculum is viable."}, "Escherichia coli (UTI89)": {"system": "Escherichia coli (UTI89)", "assay": "Antimicrobial kill (microdilution) assay, MIC/MBC by CFU count", "type": "cell-based", "settings": "for antimicrobial activity against E. coli (in words): MIC/MBC based, mostly compared to full-length RNase 7", "protocol": "as §1, §2"}, "E. coli": {"system": "E. coli", "assay": "Urinary condition functional assay (OD600 growth curves)", "type": "cell-based, Escherichia coli", "protocol": "(§3) Because the urinary environment can have significant variation in salt concentration, ionic composition, and pH, an antimicrobial/bacteriostatic assay was performed to evaluate if pH, calcium, or ionic strength affects the activity of full-length RNase7 or its fragments. The highest activity fragment F:1-97 and lowest activity fragment F:72-128 for these experiments were chosen. Bacteria were inoculated in 1% peptone water and growth to log phase with OD600=0.5. Bacteria were diluted to 1:10 and 1 μl added to 100 μl of 1% peptone water with various pH, CaCl2 or NaCl concentrations that correspond to a physiologic range present in the urine in a 96-well flat bottom plate (Thermo Scientific, Nunc, Worcester, Mass.). To each well, 2 μM of RNase7 or its fragments were added.\n(§4) Bacterial growth was monitored using an Absorbance microplate reader (BioTek Instruments, Winooski, Vt.) at a final volume of 110 μl. The turbidity of the culture was measured and recorded at t=0 and every 20 min thereafter for 10 hours using the absorbance at 600 nm (OD600). The values of OD600 values were plotted against times to generate growth curves."}, "[2]": {"system": "Proteus mirabilis (ATCC 7002)", "assay": "Antimicrobial kill (microdilution) assay, MIC/MBC by CFU count", "type": "cell-based", "settings": "3 hours, 0.1×PBS", "protocol": "Uropathogenic Escherichia coli (UTI89) was grown in Luria broth (LB) medium and plated on LB-agar. Uropathogenic Staphylococcus saprophyticus (ATCC 15305) was grown in LB and plated on Trypticase Soy Agar with 5% sheep blood (Fisher Scientific, Pittsburgh, Pa., USA). Uropathogenic Proteus mirabilis (ATCC 7002) was grown in LB and plated on MacConkey II Agar (Fisher Scientific, Pittsburgh, Pa., USA). These organisms were chosen as the primary organisms that account for a majority of Gram-negative and Gram-positive urinary tract infections (UTI). Anti-RNase 7 antibody was generated in rabbit with recombinant human RNase 7 (Biomatik, Wilmington, Del., USA)\nas §2"}, "Proteus mirabilis": {"system": "Proteus mirabilis", "assay": "Urinary condition functional assay (OD600 growth curves)", "type": "cell-based", "protocol": "as §3, §4"}, "E. coli (UTI-89)": {"system": "E. coli (UTI-89)", "assay": "Live/Dead BacLight bacterial viability assay (confocal imaging)", "type": "cell-based, Escherichia coli", "settings": "1 μM", "protocol": "(§5) Bacterial viability assays were performed using a Live/Dead BacLight™ bacterial viability kit (Invitrogen). Uropathogenic E. coli (UTI-89) and S. Saprophyticus (ATCC 15305) were grown at 37° C. to the mid-log phase, centrifuged at 5000 rpm for 5 min, and resuspended in water with an OD=0.2. Bacteria were stained using a 1:1 mixture of a green-fluorescent STY®9 dye and a red-fluorescent propidium iodide dye as provided in the Live/Dead BacLight™ bacterial viability kit. SYTO®9 labels both live and dead bacteria. Propidium iodide penetrates only bacteria with damaged membranes. Consequently, live bacteria with intact membranes fluoresce green, while dead bacteria with damaged membranes fluoresce red. […]. 50 uL of stained uropathogenic bacteria was mixed with recombinant RNase 7 or RNase 7 fragments to achieve a final concentration of 3 uM and 1 uM. 10 uL of this mixture was added to poly-1-lysine coated microscope slides (Polysciences, Inc, Warrington, Pa., USA) and confocal images of the bacteria were obtained using a Zeiss LSM 700 confocal laser scanning microscope (Carl Zeiss LLC, Thornwood, N.Y., USA). SYTO®9 was excited using an argon laser (448-500 nm emission collected) and propidium iodide was excited using an orange diode (555-600 nm emission collected). Samples were imaged in triplicate.\n(§6) For images of intact versus disrupted membranes of dying/dead cells, the Live/Dead BacLight™ bacterial viability kit (Invitrogen) was used. E. coli and S. saprophyticus were grown at 37° C. to the mid-log phase, centrifuged at 5000 rpm for 5 min, and resuspended in water to an OD600 of 0.2. Bacteria were incubated in a 1:1 mixture of Live/Dead BacLight™ bacterial viability assay. A bacterial aliquot of 50 μL was mixed with recombinant RNase 7 or recombinant fragments to achieve a final concentration of 1 μM. Ten microliters of this mixture was added to poly-1-lysine coated microscope slides (Polysciences, Inc, Warrington, Pa., USA), and images were obtained in triplicate using a Zeiss LSM 710 confocal laser scanning microscope (Carl Zeiss LLC, Thornwood, N.Y., USA)."}, "S. saprophyticus": {"system": "S. saprophyticus", "assay": "Urinary condition functional assay (OD600 growth curves)", "type": "cell-based, Staphylococcus saprophyticus", "protocol": "as §3, §4"}, "[3]": {"system": "S. Saprophyticus (ATCC 15305)", "assay": "Live/Dead BacLight bacterial viability assay (confocal imaging)", "type": "cell-based, Staphylococcus saprophyticus", "settings": "1 μM", "protocol": "as §5, §6"}, "[4]": {"settings": "compared to full-length RNase 7"}, "[5]": {"settings": "lowest concentration that inhibits the growth of 90% of the inoculation, 3 hours, 0.1×PBS"}, "[6]": {"settings": "minimum bactericidal concentration, 3 hours, 0.1×PBS"}}, "note": "Entries after “also recorded” stand apart in the source; their conditions may differ.", "data": [{"molecule": "F:1-97: recombinant N-terminal RNase 7 fragment, amino acids 1 to 97 (SEQ ID NO: 5), N-terminal His tag (protein, listed as Homo sapiens, N-terminal His tag) KPKGMTSSQWFKIQHMQPSPQACNSAMKNINKHTKRCKDLNTFLHEPFSSVAATCQTPKIACKNGDKNCHQSHGPVSLTMCKLTSGKYPNCRYKEKR", "values": [{"measurement": "antimicrobial activity against S. saprophyticus (in words)", "setting": "[1]", "value": "decreased relative to the full-length peptide"}, {"measurement": "antimicrobial activity against S. saprophyticus (in words)", "setting": "[1]; listed as 1-97", "value": "increased activity against both strains"}, {"measurement": "MICs and MBCs fold lower than full length protein, S. saprophyticus", "setting": "[1]; [4]", "value": "at least 4 fold"}, {"measurement": "S. saprophyticus MIC", "setting": "[1]; [5]", "value": 0.04, "unit": "µM"}, {"measurement": "S. saprophyticus MBC", "setting": "[1]; [6]", "value": 0.08, "unit": "µM"}, {"measurement": "antimicrobial activity against E. coli (in words)", "setting": "Escherichia coli (UTI89)", "value": "decreased relative to the full-length peptide"}, {"measurement": "antimicrobial activity against E. coli (in words)", "setting": "Escherichia coli (UTI89); listed as 1-97", "value": "strongest activity; also recorded: increased activity against both strains"}, {"measurement": "MICs and MBCs fold lower than full length protein, E. coli", "setting": "Escherichia coli (UTI89); [4]", "value": "at least 4 fold"}, {"measurement": "E. coli MIC", "setting": "Escherichia coli (UTI89); [5]", "value": 0.07, "unit": "µM"}, {"measurement": "E. coli MBC", "setting": "Escherichia coli (UTI89); [6]", "value": 0.14, "unit": "µM"}, {"measurement": "activity on E. coli growth at various pH levels", "setting": "E. coli; 2 μM peptide, 1% peptone water, pH 5, 7, 9, OD600 for 10 hours, FIG. 3", "value": "activity pattern comparable to full-length peptide at various pHs"}, {"measurement": "activity on E. coli growth at various NaCl titers", "setting": "E. coli; 2 μM peptide, 50, 150, 500 mM NaCl, OD600 for 10 hours, FIG. 4", "value": "activity pattern comparable to full-length peptide at various NaCl concentrations"}, {"measurement": "activity on E. coli growth at various CaCl2 titers", "setting": "E. coli; 2 μM peptide, CaCl2 up to 16.25 mM, OD600 for 10 hours, FIG. 5", "value": "activity pattern comparable to full-length peptide at various CaCl2 concentrations; also recorded: sensitive to CaCl2 concentrations"}, {"measurement": "P. mirabilis MIC", "setting": "[2]; lowest concentration that inhibits the growth of 90% of the inoculation", "value": ".44 µM"}, {"measurement": "P. mirabilis MBC", "setting": "[2]; minimum bactericidal concentration", "value": ".88 µM"}, {"measurement": "activity on Proteus mirabilis growth at various CaCl2 titers", "setting": "Proteus mirabilis; 2 μM peptide, 1.25, 7.5, 16.25 mM CaCl2, OD600 for 10 hours, FIG. 11", "value": "unchanged activity under all conditions against P. mirabilis; also recorded: activity is not significantly altered by CaCl2 concentrations"}, {"measurement": "activity on Proteus mirabilis growth at various NaCl titers", "setting": "Proteus mirabilis; 2 μM peptide, 50, 150, 500 mM NaCl, OD600 for 10 hours, FIG. 10", "value": "activity pattern comparable to full-length peptide at various NaCl concentrations"}, {"measurement": "activity on Proteus mirabilis growth at various pH levels", "setting": "Proteus mirabilis; 2 μM peptide, pH 5, 7, 9, OD600 for 10 hours, FIG. 9", "value": "optimal activity at pH 5 (gray squares), but less compared to full length"}, {"measurement": "killing of E. coli in Bacterial Viability Assay", "setting": "E. coli (UTI-89); 30 min", "value": "killed most of the E. coli and S. saprophyticus"}, {"measurement": "killing of E. coli in Bacterial Viability Assay", "setting": "E. coli (UTI-89); 3 hours", "value": "completely dead"}, {"measurement": "activity on S. saprophyticus growth at various NaCl titers", "setting": "S. saprophyticus; 2 μM peptide, 50, 150, 500 mM NaCl, OD600 for 10 hours, FIG. 7", "value": "diminished in direct proportion to NaCl concentration; also recorded: activity pattern comparable to full-length peptide at various NaCl concentrations"}, {"measurement": "activity on S. saprophyticus growth at various CaCl2 titers", "setting": "S. saprophyticus; 2 μM peptide, CaCl2 up to 16.25 mM, OD600 for 10 hours, FIG. 8", "value": "sensitive to CaCl2 concentrations; also recorded: activity is inversely related to CaCl2 concentration but more pronounced compared to full length RNase 7"}, {"measurement": "activity on S. saprophyticus growth at various pH levels", "setting": "S. saprophyticus; 2 μM peptide, pH 5, 7, 9, OD600 for 10 hours, FIG. 6", "value": "optimal activity at pH 5"}, {"measurement": "killing of S. saprophyticus in Bacterial Viability Assay", "setting": "[3]; 30 min", "value": "killed most of the E. coli and S. saprophyticus"}, {"measurement": "killing of S. saprophyticus in Bacterial Viability Assay", "setting": "[3]; 3 hours", "value": "completely dead"}]}]}
